Laboratory results as given in article PMC11551315 (Proceedings of the National Academy of Sciences of the …, 2024).
Like-named read-outs stand apart in the source and are kept apart here.

Columns and labels:
Cdc15-eGFP [1] = target: T1, Cdc15-eGFP (S. cerevisiae, UniProt P27636 1-974); assay: AlphaScreen or HTRF
T1 sequence (looked up): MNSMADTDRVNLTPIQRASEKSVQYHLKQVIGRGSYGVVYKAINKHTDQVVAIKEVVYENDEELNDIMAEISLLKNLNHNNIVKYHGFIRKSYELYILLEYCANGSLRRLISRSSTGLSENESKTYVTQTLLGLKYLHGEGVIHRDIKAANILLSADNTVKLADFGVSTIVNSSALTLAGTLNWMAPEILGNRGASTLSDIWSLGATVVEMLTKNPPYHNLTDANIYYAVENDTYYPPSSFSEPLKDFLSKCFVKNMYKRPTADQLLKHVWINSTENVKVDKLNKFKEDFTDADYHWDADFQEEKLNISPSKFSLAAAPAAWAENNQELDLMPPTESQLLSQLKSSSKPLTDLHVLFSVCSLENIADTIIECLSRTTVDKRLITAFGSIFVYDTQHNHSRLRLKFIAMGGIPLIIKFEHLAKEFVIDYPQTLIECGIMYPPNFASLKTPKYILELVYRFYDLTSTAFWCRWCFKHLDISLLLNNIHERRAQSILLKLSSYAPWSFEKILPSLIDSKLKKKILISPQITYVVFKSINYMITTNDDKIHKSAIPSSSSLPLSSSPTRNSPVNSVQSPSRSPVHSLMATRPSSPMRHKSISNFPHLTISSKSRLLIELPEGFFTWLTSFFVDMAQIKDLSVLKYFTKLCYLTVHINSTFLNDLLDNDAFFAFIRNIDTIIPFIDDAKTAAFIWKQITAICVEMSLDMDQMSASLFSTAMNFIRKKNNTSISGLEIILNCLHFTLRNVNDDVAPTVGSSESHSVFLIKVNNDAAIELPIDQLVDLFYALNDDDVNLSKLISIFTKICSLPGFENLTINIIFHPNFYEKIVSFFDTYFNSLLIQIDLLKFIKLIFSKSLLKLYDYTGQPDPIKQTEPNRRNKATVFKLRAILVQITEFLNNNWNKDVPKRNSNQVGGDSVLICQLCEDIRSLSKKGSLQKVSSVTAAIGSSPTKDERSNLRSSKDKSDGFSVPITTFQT

Cdc15-eGFP [2] = target: T1, Cdc15-eGFP; assay: AlphaScreen or HTRF; remark: listed apart in the source

Kd (Cdc15-eGFP [1]): 16 ± 3 nM | Kd (Cdc15-eGFP [2]): 3.9 ± 0.8 nM
B1: Recombinant Tem1 (unlabeled) (natural protein, S. cerevisiae, UniProt P38987 1-245, looked up)
chain: MATPSTGANNSIPAVRNQVEVQVGLVGDAQVGKTSLMVKYVQNIYDKEYTQTLGVNFLKRKVSIRSTDIIFSIMDLGGQREFINMLPIATVGSSVIIFLFDLTRPETLSSIKEWYRQAYGLNDSAIPILVGTKYDLLIDLDPEYQEQISRTSMKYAQVMNAPLIFCSTAKSINIQKIFKIALAKIFNLTLTIPEINEIGDPLLIYKHLGGQQHRHHNKSQDRKSHNIRKPSSSPSSKAPSPGVNT
